In publication PMC9850920:

Target: T1, METTL16-His6 (full length) (Homo sapiens, UniProt Q86W50)
T1 sequence: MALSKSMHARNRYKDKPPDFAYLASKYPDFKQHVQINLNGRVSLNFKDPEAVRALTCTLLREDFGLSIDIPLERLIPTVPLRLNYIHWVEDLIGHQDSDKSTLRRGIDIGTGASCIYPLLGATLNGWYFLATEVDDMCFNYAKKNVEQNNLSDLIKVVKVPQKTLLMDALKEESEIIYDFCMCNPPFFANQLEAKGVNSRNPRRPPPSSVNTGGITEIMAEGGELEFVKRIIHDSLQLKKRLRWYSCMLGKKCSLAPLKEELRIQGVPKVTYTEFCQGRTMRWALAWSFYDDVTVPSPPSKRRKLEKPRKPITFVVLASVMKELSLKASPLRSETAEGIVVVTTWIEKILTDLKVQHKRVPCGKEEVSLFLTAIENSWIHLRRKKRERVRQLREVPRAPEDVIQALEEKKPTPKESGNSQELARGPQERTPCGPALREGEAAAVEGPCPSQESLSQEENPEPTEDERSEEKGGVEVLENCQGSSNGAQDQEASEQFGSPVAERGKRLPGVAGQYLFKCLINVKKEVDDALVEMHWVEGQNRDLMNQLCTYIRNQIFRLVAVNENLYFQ
Test: MST

B1: MALAT1 triple helix (structured_RNA)
RNA: GGAAGGUUUUUCUUUUCCUGAGAAAACAACACGUAUUGUUUUCUCAGGUUUUGCUUUUUGGCCUUUUUCUAGCUUAAAAAAAAAAAAAGCAAAA
**Q.** How did the Kd turn out when B1 was run?
**A.** 31 ± 3 nM
